The supplement of paper PMC9170038

What was measured:
[1] = test system: K4 kissing-loop RNA reporter; assay: apparent KD of K4 kissing-loop reporter; higher = weaker reporter binding; details: Eterna round: R107;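 note: bound reporter read as fluorescence of individual clusters on recovered sequencing chips by microscopy, with normalized cluster intensities fitted with a binding model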
Description: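 RNA-MaP round R107: designed RNA switches with theophylline, tryptophan, arginine or FMN aptamers are transcribed on-chip within common flanks. They are titrated with a labelled K4 kissing-loop RNA reporter in RNA-MaP buffer (100 mM Tris pH 7.5, 80 mM KCl, 4 mM MgCl2), without ligand or with the indicated ligand. Median apparent KD per design.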

MS2 coat protein = assay: apparent KD of MS2 coat protein; designed switch direction (-1 OFF switch, 1 ON switch): -1; higher = weaker reporter binding
How it was run: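 For each design, the apparent KD is the median over clusters of curves fitted to normalised cluster fluorescence. Clusters held RNA switches with common flanks, transcribed on Illumina chips by stalled E. coli RNA polymerase. These were titrated with SNAP-549-labelled MS2 coat protein, doubling from 0.7 or 1.5 nM to 3 µM, without input, with 200 uM small-molecule ligand, or with an oligonucleotide input.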

[2] = input ligand: theophylline 20 uM
[3] = input ligand: tryptophan 2.4 mM
[4] = Eterna round: R95, input ligand: FMN 200 uM
[5] = Eterna round: R95, input ligand: microRNA oligo, concentration not stated
[6] = Eterna round: R95, input ligand: none
[7] = input ligand: microRNA oligo, concentration not stated

| Sequence | apparent KD of K4 kissing-loop reporter ([1]; input ligand: FMN 200 uM) [nM] | apparent KD of K4 kissing-loop reporter ([1]; input ligand: arginine 13.2 mM) [nM] | apparent KD of K4 kissing-loop reporter ([1]; input ligand: none) [nM] | apparent KD of K4 kissing-loop reporter [1, 2] [nM] | apparent KD of K4 kissing-loop reporter [1, 3] [nM] | apparent KD of MS2 coat protein (MS2 coat protein; [4]) [nM] | apparent KD of MS2 coat protein (MS2 coat protein; [5]) [nM] | apparent KD of MS2 coat protein (MS2 coat protein; [6]) [nM] | apparent KD of MS2 coat protein (MS2 coat protein; input ligand: FMN 200 uM) [nM] | apparent KD of MS2 coat protein (MS2 coat protein; [7]) [nM] | apparent KD of MS2 coat protein (MS2 coat protein; input ligand: none) [nM] |
| --- | --- | --- | --- | --- | --- | --- | --- | --- | --- | --- | --- |
| AAAACCAAAAGCGAUACCAGCGCGGAGUGAUGUUCCGAGGAUCGGAGUGAUGUUCCGAAGCGCCCUUGGCAGCGCAAAAGCGCAA [Exclusion Theophylline B GF 7] | 207 | 139 | 171 | 196 | 164 |  |  |  |  |  |  |
| GGAUAGGACUGAGGAUAUGGGCUAGGCAAGAAUAACUUGUCUAGCAAAUCCAUGAGGAGUGAUGUUCCAGAAGGCGGUCCUAUCG [FmnBX 1 U10+G76] | 601 | 127 | 131 | 173 | 231 |  |  |  |  |  |  |
| GGCGCUGUCUGUGCCGCCCUCCUCGUCCCUCGAGGACCGGUACGGCCGCCACUCGAGUGAUGUUCGGGUAGCCCUCCCUGCCAGC [BDazzled - #22 Exc. Tryptophan A] | 462 | 320 | 492 | 382 | 233 |  |  |  |  |  |  |
| UUAGGAGUGGGAGGAUAUCCUAAUGUGGGUGAUGUUAGCGAUGUUGAAAGUGUAGUGAUGUUGUGCGGAGAAGGUCCAGUGUUGA [BDazzled - #12 - Exc. FMN B] | 197 | 141 | 175 | 269 | 168 |  |  |  |  |  |  |
| CCAUUCUUUUACGAUACCAGUUUAAUAUAUUUAAUCAAAACCCUCGCCGAGUGAUGUUCGGACCCUUGGCAGCGUUUGCGAGAGG [bjnbstkmullin] | 455 | 291 | 582 | 533 | 397 |  |  |  |  |  |  |
| GCCGUAGAUGGAAGGAGCGACUUCAGCGGAUAAACGUGACAAUUGGAGUGAUGUUCGCAAGGUCAGGUAGGUCGCCAUCUACGGC | 819 | 211 | 260 | 274 | 313 |  |  |  |  |  |  |
| AAGGUCACUGCUACAGUGAUGUUGUGGGAGCAGGAUAUGCUGAAAAGCAGAAGGGCUCGCUCCAGGUGACCGAAUGAAACAUUCA [whbob_SS_FMNA__2th176] | 1140 | 718 | 1290 | 792 | 1110 |  |  |  |  |  |  |
| AGGGCUGAGAGCGAUACCAGCGGUAACUGUAUGGUCCAAUAGAGUGAUGUUUUAUAGAGCCGCCCUUGGCAGCGCAAUCUAUUAG [XTheo-B5] | 245 | 65.5 | 424 | 184 | 129 |  |  |  |  |  |  |
| ACCCGGGCCCGAAAGGGCCCGGGAAGAGAUACCAGCAGCGAAAGCUGCCCUUGGCAGCUCACUUAGUGAUGUUGAGUAUAGGGUA [#22 K4 Theophylline A Same State] | 1100 | 463 | 279 | 185 | 361 |  |  |  |  |  |  |
| UAAUUUAUGUCUUUAAUAUAAUUUUCAGAUACCAGUGAUUAUUAACACCCUUGGCAGCUGUAUAGAGUGAUGUUCUUAUGCUUAA [JR_ExcTheophyA_Sub009] | 213 | 314 | 237 | 321 | 156 |  |  |  |  |  |  |
| UUAGCCUAGCCAUAGUGAUGUUGUGGAAUACGAGGACCGGUACGGCCGCCACUCGCUCGACGGUGAUGACAUCAACGACCUUUAU [theeternabot_sameState_KL_Trp_A_38] | 312 | 304 | 311 | 314 | 285 |  |  |  |  |  |  |
| CCUGCAGCUGUAACCGAGUGAUGCUACGGACGAGGACCGGUACGGCCGCCACUCGCCAGUGAUGUUGGUGUGGGAGGACGUAACU [KL-XTryp-A22] | 200 | 140 | 190 | 178 | 199 |  |  |  |  |  |  |
| CGACUAGUCUUGCAACCCUAGUCGAUAGACUAGGAUAUCAGGAAACUGAGAAGGAGUCUACUUGCAGUGAUGUUGCAAGAAUAAU [[F]''-[K]'-[F]'-[F1]-[F2]-[K1]-[K2]_Design6] | 163 | 176 | 170 | 168 | 156 |  |  |  |  |  |  |
| AAAAUAAAUAGCAGUCACGGAGUGAUGUUCCGAGGACCGGUACGGCCGCCACUCGACCAGACAAAGUCUGGAUGGCGAGACUGCA [#SwitchBubble 19 #K4Early] | 200 | 290 | 342 | 392 | 340 |  |  |  |  |  |  |
| UGGCGGCAAGGGUUAUUGGAAAGUAUUCGUCGAGGACCGGUACGGCCGCCACUCGAACACCAGUGAUGUUGGUCUGGUUUAAGCU [Exclusion Tryptophan A GF 22] | 447 | 690 | 540 | 636 | 321 |  |  |  |  |  |  |
| UUUUAUAACCGAAGGAGCGCGUGGGCGCAGUGAUGUUGCGCCCGACAUCACUUCAACUUAACGCAGGUAGGUCGCGGUUUUAAUA [Arginine B (Excl) V2] | 157 | 132 | 159 | 158 | 153 |  |  |  |  |  |  |
| UCCUGCAAUCUGCCACGAAAGUGGAUUGAUACCAGAGUCGAAAGACUCCCUUGGCAGCGAGUGAUGUUCGUUGCAGGUAAAUAAA [MatMod 7 - Jieux - Exclusion - Theophylline A] | 181 | 178 | 175 | 170 | 149 |  |  |  |  |  |  |
| AUACCUCUACGAGUGAUGUUUGUUGAGGAUACCAGCAUGUAUAGUUGCCCUUGGCAGCCUUGGCUCGUGCGCUCCCUCCGAACCG [theeternabot_exclusion_KL_Theo_A_30] | 296 | 240 | 291 | 277 | 247 |  |  |  |  |  |  |

| Sequence | apparent KD of K4 kissing-loop reporter ([1]; input ligand: FMN 200 uM) [nM] | apparent KD of K4 kissing-loop reporter ([1]; input ligand: arginine 13.2 mM) [nM] | apparent KD of K4 kissing-loop reporter ([1]; input ligand: none) [nM] | apparent KD of K4 kissing-loop reporter [1, 2] [nM] | apparent KD of K4 kissing-loop reporter [1, 3] [nM] | apparent KD of MS2 coat protein (MS2 coat protein; [4]) [nM] | apparent KD of MS2 coat protein (MS2 coat protein; [5]) [nM] | apparent KD of MS2 coat protein (MS2 coat protein; [6]) [nM] | apparent KD of MS2 coat protein (MS2 coat protein; input ligand: FMN 200 uM) [nM] | apparent KD of MS2 coat protein (MS2 coat protein; [7]) [nM] | apparent KD of MS2 coat protein (MS2 coat protein; input ligand: none) [nM] |
| --- | --- | --- | --- | --- | --- | --- | --- | --- | --- | --- | --- |
| AUAGCACCUUAUGAUACCAGACGAGUGAUGUUCUGUGGUGUCGUCACAAGGCAAUCGACUGUCCCUUGGCAGCAUCAUUCUAUAU [theeternabot_exclusion_KL_Theo_B_31] | 563 | 531 | 453 | 722 | 730 |  |  |  |  |  |  |
| AAAUUCUUUUUUUUAUAUAACGAUUCAGAAGGAGCGAGGUAGAACUCAGGUAGGUCGCUGAAUAUAAGACUAGUGAUGUUAGUAA [#01 K4 Arginine A Same State] | 175 | 193 | 224 | 238 | 156 |  |  |  |  |  |  |
| GCGCGUCAUGUCAGCGGUGACACUGUCGAUACCAGCGCCGUAAGGCGCCCUUGGCAGCGACGUGCUGGAGUGAUGUUCCAGCGUC [#2 Exclusion - Theophylline A Attempt #20 (HarryS)] | 178 | 110 | 149 | 126 | 141 |  |  |  |  |  |  |
| AUGCAUCAGACUUGAUACGGUGAAAUAGCCCGAGGACCGGUACGGCCGCCACUCGGUCCAGUGAUGUUGGAUAAUUAAUCUAGGU [theeternabot_sameState_KL_Trp_A_34] | 197 | 256 | 297 | 294 | 82.4 |  |  |  |  |  |  |
| CCAUCGCUAUUCGAUACCAGUCAAGAGGUCUUUGGCCUCUUAAUGGAGUGAUGUUCCUUAGACCCUUGGCAGCGAAUAGUGAUGG [Theophylline B K4 13] | 266 | 127 | 237 | 340 | 124 |  |  |  |  |  |  |
| GGAUAGGACAGAGGAUAUGGUAGUGAUGUUACCAAACUGGUUAUUAAUGUCAGAAAACUGGCAAAUCCAGAAGGCUGUCCUAUCG [KL-XFMN-B13] | 180 | 63.8 | 75.7 | 60.5 | 62.9 |  |  |  |  |  |  |
| UGUACUCUGAAAGGAUAUGUGAGCCCUUUUUGUUAGUGAUGUUGACACGGAAACACCAUCAGACUUACAGAAGGUUCGUUGGGUA [theeternabot_sameState_KL_FMN_B_17] | 375 | 183 | 241 | 286 | 252 |  |  |  |  |  |  |
| CUAUAAGUGCCGAGUGAUGUUCGGCCAAUACGAGGACCGGUACGGCCGCCACUCGGUCAGUGAGUGCCCACCGGGCGUGGCUGAC [Leedgeis] | 261 | 225 | 209 | 253 | 124 |  |  |  |  |  |  |
| AUCGUUGCCAUUAGGACAUACGGUCCUGAACGAGGACCGGUACGGCCGCCACUCGAGCACACGAGUGAUGUUCGUGGGCAACGAU [Tryp A SS t1] | 131 | 107 | 137 | 136 | 358 |  |  |  |  |  |  |
| GGGAUGUAGGGAAGGAGCGCUUUGCGAAUAUUAAUGAGUGAUGUUCGUAGAUAUUUGUAAUGGCAGGUAGGUCGCCCUAUAUCCC [Skye_SS_AB] | 197 | 131 | 166 | 151 | 157 |  |  |  |  |  |  |
| GAAAAGGUAGGAUAUAUGAAAAAAAAGGGUAGAAAAAAAACACAUGAGGAUCACCCAUGUAGAAGGACCAAAAG [salish99_ex2_r3_056] (puzzle: Exclusion 2) |  |  |  |  |  | 37.2 | 46.3 | 26.9 |  |  |  |
| GCGCAAACGCCAAAAGGCGAAACAACAUGAGGAUCACCCAUGUAGGAUAUCGAUUGCUUUGCAGUCGAGAAGGGCAUAAUGCGC [JL ENG3 3.80 Mod 4] (Eterna round: R96, puzzle: Exclusion NG 3) |  |  |  |  |  |  |  |  | 15.4 | 13 | 16.6 |
| UUUAAUUUUUUUUUUUUACAAGCUUUUUGCUCGUCUUAUACAUGAGGAUCACCCAUGUAGGUGAAAAGUAAAUUAUC [JMF 45] (puzzle: Sensor v3, turn-off variant 2) |  |  |  |  |  | 15.8 | 82.1 | 20.8 |  |  |  |
| CCUCUGUUAGGAUAUGGCAAAGAUGAGACACACCGACAUUGUUAGAAGGGACAUGAGGAUCACCCAUGUCAGCG [Eternabot (L1) Solution 57] (Eterna round: R97, puzzle: Exclusion 4) |  |  |  |  |  |  |  |  | 22.8 |  | 21.4 |
| GCAAGAGCAGGAUAUCUAAUAUAUCACAUGAGGAUCACCCAUGUCCAGCGAAAGCUGGAGGGAGAAGGGCUCUUGC [Mat - Exclusion 5 - Eli mod - D101] (puzzle: Exclusion 5) |  |  |  |  |  | 58.9 | 123 | 150 |  |  |  |
| GGUGGACAUGAGGAUCACCCAUGUGAGGAUAUCGGCCGGUUCGUGGUGGCUGGCGUCUCGAGAAGGCGCAUAGU [Exclusion 1 V70] (puzzle: Exclusion 1) |  |  |  |  |  |  | 28.6 |  |  |  |  |
| GCAGCUAAGUGUAAUAACACAAUACAUGAGGAUCACCCAUGUGAGGAUAUGGACUGGAUUACAGUCCAGAAGGCACAAUGCUGC [Zipper Style 4] (Eterna round: R96, puzzle: Exclusion NG 3) |  |  |  |  |  |  |  |  | 17.2 | 16.2 | 20.9 |
| CCAUGCACGCUGCGGUCCUACAUGAGGAUCACCCAUGUGGUCUGGUGGCGUGGGUCGCCGGACUUGGCUCGUCUUGA [salish99_S_TOV1_R5_022] (Eterna round: R97, puzzle: Sensor, turn-off variant 1) |  |  |  |  |  |  |  |  | 25.6 |  | 24.7 |
